First the molecules themselves.
T1: GST-tagged dystrophin (3049–3299) (mouse, UniProt P11531 3049-3299)
T1 sequence (looked up): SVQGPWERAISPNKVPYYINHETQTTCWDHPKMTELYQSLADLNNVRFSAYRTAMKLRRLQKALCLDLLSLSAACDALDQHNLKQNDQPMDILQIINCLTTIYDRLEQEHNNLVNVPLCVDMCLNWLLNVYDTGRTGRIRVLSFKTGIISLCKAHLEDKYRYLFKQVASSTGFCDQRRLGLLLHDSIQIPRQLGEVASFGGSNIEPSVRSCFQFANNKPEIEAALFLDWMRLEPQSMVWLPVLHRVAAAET

B1: dystrobrevin (natural protein, mouse (endogenous in skeletal muscle), UniProt Q9D2N4 1-746, looked up)
chain: MIEDSGKRGNTMAERRQLFAEMRAQDLDRIRLSTYRTACKLRFVQKKCNLHLVDIWNVIEALRENALNNLDPNIELNVARLEAVLSTIFYQLNKRMPTTHQIHVEQSISLLLNFLLAAFDPEGHGKISVFAVKMALATLCGGKIMDKLRYIFSMISDSSGVMVYGRYDQFLREVLKLPTAVFEGPSFGYTEQSARSCFSQQKKVTLNGFLDTLMSDPPPQCLVWLPLLHRLANVENVFHPVECSYCHSESMMGFRYRCQQCHNYQLCQDCFWRGHAGGSHSNQHQMKEYTSWKSPAKKLTNALSKSLSCASSREPLHPMFPDQPEKPLNLAHIVPPRPVTSMNDTLFSHSVPSSGSPFITRSSPPKDSEVEQNKMLARAAPAFLKGRGIQYSLNVADRLADEHVLIGLYVNMLRNDPPCMLESSNRLDEEHRLIARYAARLAAESSSSQPTQQRSAPDISFTIDANKQQRQLIAELENKNREILQEIQRLRVEHEQASQPTPEKAQQNPTLLAELRLLRQRKDELEQRMSALQESRRELMVQLEGLMKLLKEEELKQGTQGASSPRSSPSHTISRPIPMPIRSASACPTPTHTPQDSLTGVGGDVQEAFAQSSRRNLRSDLLVAADSITNTMSSLVKELNSEVASETESTVDSEFSRPQFEDLAPSPTSEKAFLAQIHSRKPGYIHGGAASTTHGDMVPEDGDPYTQPEDGNYENESVRQLENELQLEEYLKQKLQDEAYQVSLQG
B2: β-sarcoglycan (natural protein, mouse (endogenous in skeletal muscle), UniProt P82349 1-320, looked up)
chain: MAAAAAAAAATEQQGSNGPVKKSMREKAVERRNVNKEHNSNFKAGYIPIDEDRLHKTGLRGRKGNLAICVIVLLFILAVINLLITLVIWAVIRIGPNGCDSMEFHESGLLRFKQVSDMGVIHPLYKSTVGGRRNENLVITGNNQPIVFQQGTTKLSVEKNKTSITSDIGMQFFDPRTHNILFSTDYETHEFHLPSGVKSLNVQKASTERITSNATSDLNIKVDGRAIVRGNEGVFIMGKTIEFHMGGDVELKAENSIILNGTVMVSPTRLPSSSSGDQSGSGDWVRYKLCMCADGTLFKVQVTGHNMGCQVSDNPCGNTH
modifications: glycosylated at N160, N213, N260
B3: β-dystroglycan (natural protein, mouse (endogenous in skeletal muscle), UniProt Q62165 652-893, looked up)
chain: SIVVEWTNNTLPLEPCPKEQIIGLSRRIADENGKPRPAFSNALEPDFKALSIAVTGSGSCRHLQFIPVAPPSPGSSAAPATEVPDRDPEKSSEDDVYLHTVIPAVVVAAILLIAGIIAMICYRKKRKGKLTLEDQATFIKKGVPIIFADELDDSKPPPSSSMPLILQEEKAPLPPPEYPNQSMPETTPLNQDTVGEYTPLRDEDPNAPPYQPPPPFTAPMEGKGSRPKNMTPYRSPPPYVPP
modifications: glycosylated at N659
B4: δ-sarcoglycan (natural protein, mouse (endogenous in skeletal muscle), UniProt P82347 1-289, looked up)
chain: MPQEQYSHHRSTMPSSEGPHIYKVGIYGWRKRCLYFFVLLLMILILVNLAMTIWILKVMNFTIDGMGNLRITEKGLKLEGDSEFLQPLYAKEIKSRPGNALYFKSARNVTVNILNDQTKVLTQLVTGPKAVEAYGKRFEVKTVSGKLLFSADDSEVVVGAERLRVLGAEGTVFPKSIETPNVRADPFKELRLESPTRSLVMEAPKGVEINAEAGNMEAICRSELRLESKDGEIKLDAAKIKLPRLPRGSYTPTGTRQKVFEVCVCANGRLFLSQAGTGSTCQINTSVCL
modifications: glycosylated at N108
B5: 6×His-tagged dystrobrevin (1–237) (domain or fragment, mouse, UniProt Q9D2N4 1-237, looked up)
chain: MIEDSGKRGNTMAERRQLFAEMRAQDLDRIRLSTYRTACKLRFVQKKCNLHLVDIWNVIEALRENALNNLDPNIELNVARLEAVLSTIFYQLNKRMPTTHQIHVEQSISLLLNFLLAAFDPEGHGKISVFAVKMALATLCGGKIMDKLRYIFSMISDSSGVMVYGRYDQFLREVLKLPTAVFEGPSFGYTEQSARSCFSQQKKVTLNGFLDTLMSDPPPQCLVWLPLLHRLANVENV
B6: sarcospan (natural protein, mouse (endogenous in skeletal muscle), UniProt Q62147 1-216, looked up)
chain: MGRKPSPRAQELPEEEARTCCGCRFPLLLALLQLALGIAVTVLGFLMASISPSLLVRDTPFWAGSIVCVVAYLGLFMLCVSYQVDERTCVQFSMKVFYFLLSALGLMVCMLAVAFAAHHYSLLAQFTCETSLDSCQCKLPSSEPLSRAFVYRDVTDCTSVTGTFKLFLIIQMVLNLVCGLVCLLACFVMWKHRYQVFYVGVGLRSLMASDGQLPKA

One assay concerns the target dystrophin (mouse (endogenous in skeletal muscle), UniProt P11531 1-3678). Briefly: cryo-EM structure.
In the assay “β-sarcoglycan” the target is B2. Briefly: cryo-EM structure.
For assay [1], the target named is T1, GST-tagged dystrophin (3049–3299). The assay can be described thus: SEC. A general note: Size exclusion chromatography separates by hydrodynamic size, large species first.
The target of the assay “β-dystroglycan” is B3. The assay can be described thus: cryo-EM structure.

Sequence of dystrophin (P11531 whole entry): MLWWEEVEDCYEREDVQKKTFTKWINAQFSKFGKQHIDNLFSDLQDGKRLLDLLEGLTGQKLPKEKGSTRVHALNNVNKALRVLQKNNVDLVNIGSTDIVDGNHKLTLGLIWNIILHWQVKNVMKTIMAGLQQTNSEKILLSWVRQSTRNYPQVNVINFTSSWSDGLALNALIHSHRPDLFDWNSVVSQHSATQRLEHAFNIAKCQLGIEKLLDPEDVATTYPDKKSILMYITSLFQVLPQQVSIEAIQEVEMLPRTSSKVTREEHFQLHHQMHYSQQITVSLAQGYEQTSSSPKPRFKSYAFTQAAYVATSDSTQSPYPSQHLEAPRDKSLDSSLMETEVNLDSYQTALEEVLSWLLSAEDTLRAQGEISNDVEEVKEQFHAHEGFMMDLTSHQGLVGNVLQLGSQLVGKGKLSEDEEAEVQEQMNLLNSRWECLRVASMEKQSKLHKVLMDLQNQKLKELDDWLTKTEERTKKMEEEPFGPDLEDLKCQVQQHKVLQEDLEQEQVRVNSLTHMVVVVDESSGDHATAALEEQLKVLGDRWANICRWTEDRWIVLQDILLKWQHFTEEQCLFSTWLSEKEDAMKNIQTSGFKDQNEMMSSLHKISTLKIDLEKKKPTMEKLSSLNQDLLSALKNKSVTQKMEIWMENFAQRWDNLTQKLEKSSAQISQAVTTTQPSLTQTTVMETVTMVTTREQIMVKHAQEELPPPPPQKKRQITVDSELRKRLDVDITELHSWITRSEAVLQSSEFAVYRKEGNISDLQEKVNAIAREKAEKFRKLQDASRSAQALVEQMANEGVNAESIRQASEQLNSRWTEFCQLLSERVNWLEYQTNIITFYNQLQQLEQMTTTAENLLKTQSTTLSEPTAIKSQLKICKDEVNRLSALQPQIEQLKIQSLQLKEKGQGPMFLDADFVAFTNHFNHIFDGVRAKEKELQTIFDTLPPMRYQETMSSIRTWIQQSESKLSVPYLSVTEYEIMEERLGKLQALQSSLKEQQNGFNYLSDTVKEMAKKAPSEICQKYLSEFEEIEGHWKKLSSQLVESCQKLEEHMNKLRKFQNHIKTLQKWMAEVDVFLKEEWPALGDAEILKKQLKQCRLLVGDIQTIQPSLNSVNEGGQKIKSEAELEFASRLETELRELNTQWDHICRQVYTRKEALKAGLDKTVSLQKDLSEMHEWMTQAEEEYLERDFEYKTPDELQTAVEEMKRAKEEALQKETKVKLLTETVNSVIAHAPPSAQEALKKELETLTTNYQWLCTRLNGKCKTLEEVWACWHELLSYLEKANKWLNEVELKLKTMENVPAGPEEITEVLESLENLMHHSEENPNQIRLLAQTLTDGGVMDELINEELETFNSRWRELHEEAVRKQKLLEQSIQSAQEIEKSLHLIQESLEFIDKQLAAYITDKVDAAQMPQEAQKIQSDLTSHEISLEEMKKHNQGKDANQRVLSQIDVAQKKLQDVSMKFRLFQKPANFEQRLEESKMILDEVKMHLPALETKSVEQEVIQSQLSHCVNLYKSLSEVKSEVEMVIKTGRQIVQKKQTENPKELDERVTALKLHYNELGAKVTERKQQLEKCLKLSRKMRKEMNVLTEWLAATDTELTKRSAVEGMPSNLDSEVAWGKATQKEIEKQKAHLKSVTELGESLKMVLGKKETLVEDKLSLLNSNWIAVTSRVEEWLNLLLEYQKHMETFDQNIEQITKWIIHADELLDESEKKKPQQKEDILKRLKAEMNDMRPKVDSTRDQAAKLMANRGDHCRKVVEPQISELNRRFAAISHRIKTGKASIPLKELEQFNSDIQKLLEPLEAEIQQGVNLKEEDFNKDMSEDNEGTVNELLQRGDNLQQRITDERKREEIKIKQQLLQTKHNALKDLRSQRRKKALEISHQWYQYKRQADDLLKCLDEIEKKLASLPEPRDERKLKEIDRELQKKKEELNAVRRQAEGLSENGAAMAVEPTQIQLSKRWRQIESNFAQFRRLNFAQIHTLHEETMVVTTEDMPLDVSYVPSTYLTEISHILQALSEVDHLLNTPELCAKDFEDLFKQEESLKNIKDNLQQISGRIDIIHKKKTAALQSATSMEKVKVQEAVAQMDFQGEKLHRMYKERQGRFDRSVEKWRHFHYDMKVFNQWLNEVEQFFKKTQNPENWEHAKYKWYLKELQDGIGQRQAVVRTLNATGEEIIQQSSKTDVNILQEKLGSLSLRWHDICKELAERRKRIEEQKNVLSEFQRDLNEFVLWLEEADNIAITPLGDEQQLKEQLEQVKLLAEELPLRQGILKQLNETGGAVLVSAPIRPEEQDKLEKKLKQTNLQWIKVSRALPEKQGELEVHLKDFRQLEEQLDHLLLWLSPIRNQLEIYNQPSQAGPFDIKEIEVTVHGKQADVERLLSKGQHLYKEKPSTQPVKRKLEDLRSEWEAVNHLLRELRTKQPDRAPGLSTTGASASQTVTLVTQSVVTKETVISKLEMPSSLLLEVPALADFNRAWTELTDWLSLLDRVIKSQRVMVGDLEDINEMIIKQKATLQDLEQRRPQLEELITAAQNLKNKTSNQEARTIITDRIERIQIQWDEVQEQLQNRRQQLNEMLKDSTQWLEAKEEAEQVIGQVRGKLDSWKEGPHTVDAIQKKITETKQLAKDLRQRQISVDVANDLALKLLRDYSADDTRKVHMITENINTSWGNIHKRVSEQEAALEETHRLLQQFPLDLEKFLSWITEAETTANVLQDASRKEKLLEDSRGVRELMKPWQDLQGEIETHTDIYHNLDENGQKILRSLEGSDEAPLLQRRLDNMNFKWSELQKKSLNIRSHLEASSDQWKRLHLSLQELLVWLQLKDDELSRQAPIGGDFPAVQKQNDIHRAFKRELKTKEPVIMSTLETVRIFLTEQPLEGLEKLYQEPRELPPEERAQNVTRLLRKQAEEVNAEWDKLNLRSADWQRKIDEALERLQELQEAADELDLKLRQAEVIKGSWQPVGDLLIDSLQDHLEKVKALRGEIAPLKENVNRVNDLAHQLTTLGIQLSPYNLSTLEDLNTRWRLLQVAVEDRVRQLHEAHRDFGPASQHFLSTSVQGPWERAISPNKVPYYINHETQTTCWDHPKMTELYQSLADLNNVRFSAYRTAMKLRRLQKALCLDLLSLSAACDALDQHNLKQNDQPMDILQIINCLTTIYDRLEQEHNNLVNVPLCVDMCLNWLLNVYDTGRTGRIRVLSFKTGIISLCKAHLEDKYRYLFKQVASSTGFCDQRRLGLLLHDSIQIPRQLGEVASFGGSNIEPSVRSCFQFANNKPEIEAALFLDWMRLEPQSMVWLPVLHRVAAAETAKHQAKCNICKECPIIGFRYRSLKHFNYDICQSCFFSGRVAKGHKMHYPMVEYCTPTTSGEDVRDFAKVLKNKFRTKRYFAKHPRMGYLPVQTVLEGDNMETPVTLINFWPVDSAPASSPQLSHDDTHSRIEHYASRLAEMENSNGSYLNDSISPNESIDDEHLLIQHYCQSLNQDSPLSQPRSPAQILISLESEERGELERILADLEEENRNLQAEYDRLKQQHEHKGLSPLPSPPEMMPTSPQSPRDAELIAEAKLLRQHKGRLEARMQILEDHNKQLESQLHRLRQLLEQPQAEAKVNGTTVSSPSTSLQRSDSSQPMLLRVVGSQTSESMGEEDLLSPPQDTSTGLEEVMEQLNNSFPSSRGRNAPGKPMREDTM

As to B1, the binding result in the assay with dystrophin was “binds”. Consider B2, for which the binding result with dystrophin is on record as “binds”. Turning to B3, the binding result with dystrophin was “binds”. Regarding B4, the binding result with β-sarcoglycan is given as “binds”.

Regarding B5, the binding result in assay [1] is listed as “binds”. With B6, the binding result with β-dystroglycan was “binds”.

For the origin of these results see paper PMC13178787 (Nature, 2024).
